± gives the standard deviation of the averaged measurements.
System: ATP
Assay: switch fluorescence ratio, 500 uM ATP over buffer (Cy3 cluster intensity, sum of 5 cycles each) (fold (ratio)); higher = stronger signal-on switching upon ATP binding; sequences stand for … in TCGTCGGCAGCGTCAGATGTGTATAAGAGACAGTTTTTTTTTTTTTTTTTTTTTTTTT…TC
Details: aptamer strand: ATP DNA aptamer (quencher-CACCTGGGGGAGTATTGCGGAGGAAGG + anchor), 100 nM annealed; ATP concentration: 500 uM
Procedure, shortened: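 Five buffer/ATP imaging cycles were run on Cy3-labelled switching-strand clusters on a modified Illumina MiSeq flow-cell, with NaOH stripping and re-annealing between cycles. In each cycle, clusters annealed to 100 nM quencher-labelled ATP aptamer were imaged in selection buffer, then after 15 min with 500 uM ATP at 22 °C. Per cluster, the fluorescence ratio is summed target-cycle over summed buffer-cycle Cy3 intensity, averaged per switch-domain sequence. Only clusters within 100-1000 RFU were kept.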
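Also: ATP exposure 15 min at 22 °C before imaging.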

Row | Sequence | switch fluorescence ratio
1 | GGATGGGTAA | 1.01 ± 0.039
2 | GGATGGGTTT | 1 ± 0.016
3 | GGATGGTAGC | 1.01 ± 0.013
4 | GGATGGTGAG | 0.972 ± 0.011
5 | GGATGGTGTG | 0.977 ± 0.037
6 | GGATGTATAA | 1.01 ± 0.028
7 | GGATGTGAAA | 0.9851 ± 0.0046
8 | GGATGTTTCG | 1.02 ± 0.02
9 | GGATTAAAAT | 0.997 ± 0.028
10 | GGATTAAATC | 1.001 ± 0.0086
11 | GGATTAATCA | 1.01 ± 0.035
12 | GGATTAATGT | 0.971 ± 0.022
13 | GGATTAATTG | 0.996 ± 0.037
14 | GGATTACCCA | 1.04 ± 0.021
15 | GGATTACCCT | 1.04 ± 0.015
16 | GGATTACGTA | 1.04 ± 0.059
17 | GGATTAGCAG | 1.034 ± 0.0075
18 | GGATTAGGCG | 0.981 ± 0.018
19 | GGATTAGTGC | 1.06 ± 0.039
20 | GGATTATGTA | 0.999 ± 0.026
21 | GGATTATTG | 0.98 ± 0.032
22 | GGATTATTTG | 0.97982 ± 7.7e-05
23 | GGATTCGATT | 0.987 ± 0.03
24 | GGATTCTTGG | 0.977 ± 0.024
25 | GGATTGCGG | 1.008 ± 0.01

Row | Sequence | switch fluorescence ratio
26 | GGATTGGACT | 1 ± 0.019
27 | GGATTGGGTT | 1.04 ± 0.069
28 | GGATTGTTTT | 0.996 ± 0.023
29 | GGATTTATTT | 1.06 ± 0.026
30 | GGATTTGATG | 1 ± 0.031
31 | GGATTTTCAC | 1 ± 0.03
32 | GGATTTTGGA | 1 ± 0.018
33 | GGATTTTGTG | 0.994 ± 0.021
34 | GGATTTTTTG | 0.983 ± 0.021
35 | GGCAAAAATT | 1.01 ± 0.017
36 | GGCAAAACAG | 0.996 ± 0.032
37 | GGCAAATTTT | 1.02 ± 0.036
38 | GGCAATATGG | 1.229 ± 0.011
39 | GGCAATCACC | 1.402 ± 0.0063
40 | GGCAATTATT | 1.02 ± 0.026
41 | GGCACCTACG | 1.53 ± 0.14
42 | GGCACGATGG | 1 ± 0.035
43 | GGCACTATAA | 1.03 ± 0.023
44 | GGCAGAATGA | 1 ± 0.018
45 | GGCAGACTTC | 1.02 ± 0.041
46 | GGCAGAGGCT | 1.03 ± 0.031
47 | GGCAGGGGAT | 1.33 ± 0.6
48 | GGCAGGGGGT | 1.04 ± 0.088
49 | GGCAGGGGTT | 1 ± 0.023
50 | GGCAGGGTTT | 0.99 ± 0.037

Row | Sequence | switch fluorescence ratio
51 | GGCAGTAAGA | 1.03 ± 0.024
52 | GGCAGTCGTA | 0.955 ± 0.081
53 | GGCAGTGTAC | 1.18 ± 0.12
54 | GGCAGTGTGC | 0.99 ± 0.022
55 | GGCAGTTGCT | 0.9882 ± 0.0056
56 | GGCAGTTTTG | 1.01 ± 0.0062
57 | GGCATAACAC | 1.093 ± 0.0088
58 | GGCATACGTT | 0.994 ± 0.026
59 | GGCATCGTAA | 1.01 ± 0.025
60 | GGCATGTGGT | 1.0254 ± 0.001
61 | GGCATTCGAT | 0.981 ± 0.03
62 | GGCATTTCTA | 1.04 ± 0.018
63 | GGCATTTGGA | 0.98 ± 0.035
64 | GGCCAACCCG | 1.0157 ± 0.00094
65 | GGCCAAGGAA | 0.9812 ± 0.0074
66 | GGCCAAGGGG | 1.04 ± 0.027
67 | GGCCAGTTTG | 0.986 ± 0.018
68 | GGCCCATAGC | 0.986 ± 0.018
69 | GGCCCCGGGT | 1.18 ± 0.057
70 | GGCCCGTTAC | 1.63 ± 0.2
71 | GGCCCTAAGT | 0.976 ± 0.026
72 | GGCCCTTCGG | 0.9987 ± 0.0091
73 | GGCCGACAGC | 1.03 ± 0.032
74 | GGCCGATGCA | 1.02 ± 0.021
75 | GGCCGCGCTG | 1.04 ± 0.016

Row | Sequence | switch fluorescence ratio
76 | GGCCGGAATT | 1.17 ± 0.19
77 | GGCCGGACAT | 0.9674 ± 0.0089
78 | GGCCGGGGCT | 1.01 ± 0.026
79 | GGCCGGGGTA | 1 ± 0.046
80 | GGCCGGGTTA | 1.01 ± 0.042
81 | GGCCGGTAAA | 1 ± 0.051
82 | GGCCGTGGGC | 1 ± 0.043
83 | GGCCGTTGGG | 0.965 ± 0.016
84 | GGCCTAGGGA | 1.01 ± 0.056
85 | GGCCTCTTTT | 0.966 ± 0.039
86 | GGCCTTTTGA | 0.997 ± 0.015
87 | GGCGAAATGG | 1.06 ± 0.059
88 | GGCGAAGGGT | 0.98 ± 0.012
89 | GGCGAAGTTC | 0.99 ± 0.021
90 | GGCGAGGGGC | 1.01 ± 0.036
91 | GGCGATGCGC | 1.03 ± 0.018
92 | GGCGATGTAT | 0.967 ± 0.0097
93 | GGCGCACGGG | 1.02 ± 0.026
94 | GGCGCATTAT | 1.66 ± 0.061
95 | GGCGGAGTGC | 1.01 ± 0.027
96 | GGCGGATCAG | 0.9827 ± 0.0023
97 | GGCGGATGGA | 1.01 ± 0.037
98 | GGCGGATGGG | 1.02 ± 0.026
99 | GGCGGCAAAA | 1.07 ± 0.042
100 | GGCGGGCATG | 1.021 ± 0.0011
